The results in this text go back to paper PMC4313621, “Hydrophobic mismatch sorts SNARE proteins into distinct membrane domains” (Nature Communications, 2015).

This data set concerns the molecule itself. Briefly: FRET or BRET; donor- (Rhodamine Red) and acceptor- (Atto647N) labelled peptides reconstituted together in 100 nm LUVs of C14:1, C16:1, C18:1 or C20:1 PC, without or with 30 mol% cholesterol; protein-to-lipid 1:1000; 50 mM HEPES, 150 mM KCl, pH 7.4.

Ends that are not written are not given here.

B1: Syntaxin 4 TMD (residues 262-297; sx-4TM) (peptide, UniProt Q12846 262-297, looked up)
peptide: ALENQKKARKKKVLIAICVSITVVLLAVIIGVTVVG
modifications: also: N-terminus: Rhodamine Red or Atto647N
notes: syntaxin 4 transmembrane domain with juxtamembrane stretch, Homo sapiens, residues 262-297; also called syntaxin 4 truncation mutant; source: synthetic peptide (Fmoc solid phase synthesis)
Regarding B1, the binding result is recorded as “binds”.
